Our source for the fold binding against WT-CHFR values is paper PMC10584835.

In this test the target is N-terminal eGFP fused human CHFR mutant lacking forkhead-associated domain (human) (UniProt Q96EP1). As to the kind of experiment: co-IP; anti-GFP agarose beads (GFP-Trap) pull-down from lysates of HMEC transfected with eGFP-CHFR constructs, 48 h after transfection; 150 ug lysate protein, 2 h at 4 C; immunoblot for endogenous VE-cadherin; ratio of VE-cadherin to GFP-CHFR quantified.
UniProt Q96EP1, sequence (Q96EP1 whole entry, change not shown, the tested form may be a part): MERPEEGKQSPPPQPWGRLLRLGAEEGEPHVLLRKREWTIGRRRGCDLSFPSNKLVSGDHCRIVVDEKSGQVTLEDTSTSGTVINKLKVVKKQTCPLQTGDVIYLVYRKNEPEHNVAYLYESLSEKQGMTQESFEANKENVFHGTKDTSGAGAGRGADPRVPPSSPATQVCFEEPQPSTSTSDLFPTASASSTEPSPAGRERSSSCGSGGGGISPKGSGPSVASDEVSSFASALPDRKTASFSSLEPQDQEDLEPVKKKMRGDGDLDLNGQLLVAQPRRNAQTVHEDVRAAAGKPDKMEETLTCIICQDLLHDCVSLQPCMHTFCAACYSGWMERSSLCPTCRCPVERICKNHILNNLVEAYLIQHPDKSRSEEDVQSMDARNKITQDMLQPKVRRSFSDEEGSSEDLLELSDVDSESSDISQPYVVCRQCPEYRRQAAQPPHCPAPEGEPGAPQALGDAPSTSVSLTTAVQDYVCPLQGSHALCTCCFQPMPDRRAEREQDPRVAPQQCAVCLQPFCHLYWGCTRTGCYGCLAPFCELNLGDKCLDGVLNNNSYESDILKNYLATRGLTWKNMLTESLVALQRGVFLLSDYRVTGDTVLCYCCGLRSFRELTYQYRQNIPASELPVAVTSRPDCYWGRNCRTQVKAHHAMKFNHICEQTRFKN

B1: VE-cadherin, endogenous in HMEC (natural protein)
chain: DWIWNQMHIDEEKNTSLPHHVGKIKSSVSRKNAKYLLKGEYVGKVFRVDAETGDVFAIERLDRENISEYHLTAVIVDKDTGENLETPSSFTIKVHDVNDNWPVFTHRLFNASVPESSAVGTSVISVTAVDADDPTVGDHASVMYQILKGKEYFAIDNSGRIITITKSLDREKQARYEIVVEARDAQGLRGDSGTATVLVTLQDINDNFPFFTQTKYTFVVPEDTRVGTSVGSLFVEDPDEPQNRMTKYSILRGDYQDAFTIETNPAHNEGIIKPMKPLDYEYIQQYSFIVEATDPTIDLRYMSPPAGNRAQVIINITDVDEPPIFQQPFYHFQLKENQKKPLIGTVLAMDPDAARHSIGYSIRRTSDKGQFFRVTKKGDIYNEKELDREVYPWYNLTVEAKELDSTGTPTGKESIVQVHIEVLDENDNAPEFAKPYQPKVCENAVHGQLVLQISAIDKDITPRNVKFKFILNTENNFTLTDNHDNTANITVKYGQFDREHTKVHFLPVVISDNGMPSRTGTSTLTVAVCKCNEQGEFTFCEDMAAQVGVSIQAVVAILLCILTITVITLLIFLRRRLRKQARAHGKSVPEIHEQLVTYDEEGGGEMDTTSYDVSVLNSVRRGGAKPPRPALDARPSLYAQVQKPPRHAPGAHGGPGEMAAMIEVKKDEADHDGDGPPYDTLHIYGYEGSESIAESLSSLGTDSSDSDVDYDFLNDWGPRFKMLAELYGSDPREELLY
As to B1, the fold binding against WT-CHFR was found to be 2 fold.
